The results in this text go back to the Human Domainome abundance scans (Beltran et al. 2025).

± gives the uncertainty stated by the source.

The data set can be described thus: abundance fitness (aPCA) (normalised: wild type 0, dead -1); higher = more abundant; growth selection in yeast, the domain comes from the species named. The following applies: Homo sapiens.
For the substance “NEDD4-like E3 ubiquitin-protein ligase WWP2 E480M, O00308”, the abundance fitness was -0.058 ± 0.048.

For the substance “NEDD4-like E3 ubiquitin-protein ligase WWP2 E480N, O00308”, the abundance fitness is -0.126 ± 0.068.

On to “NEDD4-like E3 ubiquitin-protein ligase WWP2 E480P, O00308”, for which the abundance fitness was -0.141 ± 0.062.

“NEDD4-like E3 ubiquitin-protein ligase WWP2 E480Q, O00308”: the abundance fitness was -0.053 ± 0.04.

Take “NEDD4-like E3 ubiquitin-protein ligase WWP2 E480R, O00308”: the abundance fitness is -0.078 ± 0.038.

On to “NEDD4-like E3 ubiquitin-protein ligase WWP2 E480S, O00308”, for which the abundance fitness was -0.15 ± 0.053.

On to “NEDD4-like E3 ubiquitin-protein ligase WWP2 E480T, O00308”, for which the abundance fitness is -0.119 ± 0.062.

With “NEDD4-like E3 ubiquitin-protein ligase WWP2 E480V, O00308”, the abundance fitness is -0.064 ± 0.035.

“NEDD4-like E3 ubiquitin-protein ligase WWP2 E480Y, O00308” had an abundance fitness of 0.036 ± 0.065.

“NEDD4-like E3 ubiquitin-protein ligase WWP2 F462A, O00308”: the abundance fitness was -1.02 ± 0.067.

On to “NEDD4-like E3 ubiquitin-protein ligase WWP2 F462C, O00308”, for which the abundance fitness is -0.88 ± 0.054.

On to “NEDD4-like E3 ubiquitin-protein ligase WWP2 F462D, O00308”, for which the abundance fitness was -0.675 ± 0.084.

With “NEDD4-like E3 ubiquitin-protein ligase WWP2 F462G, O00308”, the abundance fitness is -0.8 ± 0.054.

Consider “NEDD4-like E3 ubiquitin-protein ligase WWP2 F462I, O00308”, for which the abundance fitness was -1.03 ± 0.16.

Turning to “NEDD4-like E3 ubiquitin-protein ligase WWP2 F462K, O00308”, the abundance fitness was -0.789 ± 0.16.

On to “NEDD4-like E3 ubiquitin-protein ligase WWP2 F462L, O00308”, for which the abundance fitness is -0.9 ± 0.061.

Take “NEDD4-like E3 ubiquitin-protein ligase WWP2 F462M, O00308”: the abundance fitness was -0.66 ± 0.08.

“NEDD4-like E3 ubiquitin-protein ligase WWP2 F462N, O00308”: the abundance fitness is -0.945 ± 0.082.

With “NEDD4-like E3 ubiquitin-protein ligase WWP2 F462P, O00308”, the abundance fitness is -0.605 ± 0.099.

Regarding “NEDD4-like E3 ubiquitin-protein ligase WWP2 F462Q, O00308”, the abundance fitness was -1.02 ± 0.16.

For “NEDD4-like E3 ubiquitin-protein ligase WWP2 F462R, O00308”, the abundance fitness is -0.851 ± 0.046.

On to “NEDD4-like E3 ubiquitin-protein ligase WWP2 F462S, O00308”, for which the abundance fitness is -1.04 ± 0.051.

Take “NEDD4-like E3 ubiquitin-protein ligase WWP2 F462T, O00308”: the abundance fitness was -0.87 ± 0.16.

As to “NEDD4-like E3 ubiquitin-protein ligase WWP2 F462V, O00308”, the abundance fitness was -0.939 ± 0.037.

On to “NEDD4-like E3 ubiquitin-protein ligase WWP2 F462W, O00308”, for which the abundance fitness is -0.152 ± 0.066.

Consider “NEDD4-like E3 ubiquitin-protein ligase WWP2 F462Y, O00308”, for which the abundance fitness is -0.048 ± 0.081.

As to “NEDD4-like E3 ubiquitin-protein ligase WWP2 F472A, O00308”, the abundance fitness is -0.373 ± 0.052.

As to “NEDD4-like E3 ubiquitin-protein ligase WWP2 F472C, O00308”, the abundance fitness was -0.48 ± 0.067.

For “NEDD4-like E3 ubiquitin-protein ligase WWP2 F472D, O00308”, the abundance fitness was -0.319 ± 0.072.

As to “NEDD4-like E3 ubiquitin-protein ligase WWP2 F472E, O00308”, the abundance fitness is -0.357 ± 0.061.

As to “NEDD4-like E3 ubiquitin-protein ligase WWP2 F472H, O00308”, the abundance fitness is -0.291 ± 0.033.

For the substance “NEDD4-like E3 ubiquitin-protein ligase WWP2 F472I, O00308”, the abundance fitness was -0.495 ± 0.082.

In the case of “NEDD4-like E3 ubiquitin-protein ligase WWP2 F472K, O00308”, the abundance fitness was -0.355 ± 0.07.

On to “NEDD4-like E3 ubiquitin-protein ligase WWP2 F472L, O00308”, for which the abundance fitness is -0.289 ± 0.052.

“NEDD4-like E3 ubiquitin-protein ligase WWP2 F472N, O00308”: the abundance fitness was -0.373 ± 0.053.

Take “NEDD4-like E3 ubiquitin-protein ligase WWP2 F472Q, O00308”: the abundance fitness was -0.402 ± 0.045.

On to “NEDD4-like E3 ubiquitin-protein ligase WWP2 F472S, O00308”, for which the abundance fitness was -0.351 ± 0.048.

As to “NEDD4-like E3 ubiquitin-protein ligase WWP2 F472T, O00308”, the abundance fitness is -0.15 ± 0.065.

Take “NEDD4-like E3 ubiquitin-protein ligase WWP2 F472V, O00308”: the abundance fitness is -0.392 ± 0.044.

For “NEDD4-like E3 ubiquitin-protein ligase WWP2 F472W, O00308”, the abundance fitness was -0.129 ± 0.05.

Regarding “NEDD4-like E3 ubiquitin-protein ligase WWP2 F472Y, O00308”, the abundance fitness is -0.025 ± 0.057.

With “NEDD4-like E3 ubiquitin-protein ligase WWP2 F479C, O00308”, the abundance fitness is -0.054 ± 0.046.

The substance “NEDD4-like E3 ubiquitin-protein ligase WWP2 F479D, O00308” registered an abundance fitness of 0.02 ± 0.072.

Turning to “NEDD4-like E3 ubiquitin-protein ligase WWP2 F479E, O00308”, the abundance fitness was found to be 0.027 ± 0.049.

In turn, “NEDD4-like E3 ubiquitin-protein ligase WWP2 F479G, O00308” gave an abundance fitness of 0.017 ± 0.04.

Regarding “NEDD4-like E3 ubiquitin-protein ligase WWP2 F479H, O00308”, the abundance fitness is -0.036 ± 0.083.

On to “NEDD4-like E3 ubiquitin-protein ligase WWP2 F479I, O00308”, for which the abundance fitness was -0.086 ± 0.07.

With “NEDD4-like E3 ubiquitin-protein ligase WWP2 F479K, O00308”, the abundance fitness was -0.015 ± 0.051.

On to “NEDD4-like E3 ubiquitin-protein ligase WWP2 F479L, O00308”, for which the abundance fitness is -0.054 ± 0.049.

“NEDD4-like E3 ubiquitin-protein ligase WWP2 F479P, O00308”: the abundance fitness was -0.003 ± 0.054.

With “NEDD4-like E3 ubiquitin-protein ligase WWP2 F479Q, O00308”, the abundance fitness was -0.082 ± 0.053.

For “NEDD4-like E3 ubiquitin-protein ligase WWP2 F479R, O00308”, the abundance fitness is -0.046 ± 0.049.

Consider “NEDD4-like E3 ubiquitin-protein ligase WWP2 F479S, O00308”, for which the abundance fitness was -0.013 ± 0.042.

Substance “NEDD4-like E3 ubiquitin-protein ligase WWP2 F479T, O00308” displayed an abundance fitness of 0.025 ± 0.061.

With “NEDD4-like E3 ubiquitin-protein ligase WWP2 F479V, O00308”, the abundance fitness was -0.004 ± 0.04.

On to “NEDD4-like E3 ubiquitin-protein ligase WWP2 F479W, O00308”, for which the abundance fitness was -0.103 ± 0.058.

With “NEDD4-like E3 ubiquitin-protein ligase WWP2 F479Y, O00308”, the abundance fitness was -0.18 ± 0.08.

As to “NEDD4-like E3 ubiquitin-protein ligase WWP2 G449A, O00308”, the abundance fitness is -0.269 ± 0.049.

For “NEDD4-like E3 ubiquitin-protein ligase WWP2 G449C, O00308”, the abundance fitness is -0.668 ± 0.076.

Consider “NEDD4-like E3 ubiquitin-protein ligase WWP2 G449D, O00308”, for which the abundance fitness is -0.127 ± 0.044.

As to “NEDD4-like E3 ubiquitin-protein ligase WWP2 G449E, O00308”, the abundance fitness is -0.167 ± 0.053.

As for “NEDD4-like E3 ubiquitin-protein ligase WWP2 G449F, O00308”, the abundance fitness is -0.163 ± 0.052.

Consider “NEDD4-like E3 ubiquitin-protein ligase WWP2 G449H, O00308”, for which the abundance fitness is -0.274 ± 0.087.

On to “NEDD4-like E3 ubiquitin-protein ligase WWP2 G449I, O00308”, for which the abundance fitness is -1.09 ± 0.18.

Take “NEDD4-like E3 ubiquitin-protein ligase WWP2 G449L, O00308”: the abundance fitness is -0.174 ± 0.038.

Turning to “NEDD4-like E3 ubiquitin-protein ligase WWP2 G449M, O00308”, the abundance fitness was -0.11 ± 0.042.

The substance “NEDD4-like E3 ubiquitin-protein ligase WWP2 G449N, O00308” yielded an abundance fitness of 0.119 ± 0.065.

For the substance “NEDD4-like E3 ubiquitin-protein ligase WWP2 G449P, O00308”, the abundance fitness was -0.937 ± 0.11.

For the substance “NEDD4-like E3 ubiquitin-protein ligase WWP2 G449Q, O00308”, the abundance fitness is -0.107 ± 0.064.

Take “NEDD4-like E3 ubiquitin-protein ligase WWP2 G449R, O00308”: the abundance fitness was -0.14 ± 0.047.

“NEDD4-like E3 ubiquitin-protein ligase WWP2 G449S, O00308”: the abundance fitness is -0.17 ± 0.029.

“NEDD4-like E3 ubiquitin-protein ligase WWP2 G449V, O00308”: the abundance fitness was -0.679 ± 0.035.

In the case of “NEDD4-like E3 ubiquitin-protein ligase WWP2 G449W, O00308”, the abundance fitness was -0.283 ± 0.053.

“NEDD4-like E3 ubiquitin-protein ligase WWP2 G449Y, O00308”: the abundance fitness is -0.205 ± 0.067.

As for “NEDD4-like E3 ubiquitin-protein ligase WWP2 G458A, O00308”, the abundance fitness was -0.202 ± 0.059.

Regarding “NEDD4-like E3 ubiquitin-protein ligase WWP2 G458C, O00308”, the abundance fitness is -0.193 ± 0.051.

Regarding “NEDD4-like E3 ubiquitin-protein ligase WWP2 G458D, O00308”, the abundance fitness is -0.343 ± 0.079.

Consider “NEDD4-like E3 ubiquitin-protein ligase WWP2 G458E, O00308”, for which the abundance fitness is -0.367 ± 0.063.

Take “NEDD4-like E3 ubiquitin-protein ligase WWP2 G458F, O00308”: the abundance fitness was -0.539 ± 0.1.
